Target: acetylcholine receptor on acetylcholine receptor-overexpressing TE671 cells
Experiment: cell-based or functional assay

Binder | inhibition of acetylcholine receptors (calcium imaging with Fura-2-AM, TE671 cells, nicotine 400 uM) [µM]
RRGVRR [6mer-1-210] | 10
KWRQKR [6mer-2-233] | 10
RKRIRR [6mer-1-43] | 10
RWRYKR [6mer-2-136] | 10
RRQRR [5mer-73] | 10
RSYSR [5mer-311] | 10
